The record followed here is US20230257449A1.

Numbering of substitutions follows the chain as printed.

The target in experiment [1] is H1 HA (strain not stated) (influenza A virus H1). In words: HA binding EC50; column head not printed: H1 HA and pM inferred.
The target in experiment [2] is polyclonal human IgG. Description: BLI (Octet) polyreactivity. (BLI is a label-free optical method that tracks binding on a fibre tip over time.)

B1: FX-76-1-m3 (antibody, V domains shown)
VH: QVQLLETGGGLVKPGQSLKLSCAASGFTFTSFAMHWVRQPPGKGLEWVAVVSYDGNYKYYADSVQGRFTISRDNSKNTLYLQMNSLRAEDTAVYYCAKDSRRRSLLYFEWLSQGYFNPWGQGTTLTVSS
VL: DIQMTQSPSSLSASVGDRVTITCRSSQSITFDYKNYLAWYQQKPGKAPKLLIYWGSYLESGVPSRFSGSGSGTDFTLTISSLQPEDFATYYCQQHYRTPPSFGQGTKVEIK
What is called EC50 is the concentration giving half of the maximal effect. High values mean a need for much substance, low ones an effect from little substance. On to B1, for which the EC50 in experiment [1] was 3.8 pM.

B2: FX-10-2-m3 (antibody, V domains shown)
VH: QVQLVQSGAEVKKPGSSVKVSCKASGFTFSTYAIHWVRQAPGQGLEWMGVISYDANYKYYAQKFQGRVTITRDNSKSTAYMELSSLRSEDTAVYYCARDSRLRSLLYFEWLSQGYFDYWGQGTTLTVSS
VL: B1 VL with Y57S, E59Q
For B2, the poly reactivity octet max binding response (nm) in experiment [2] was 0.681 nm.

B3: FX-6-2-m3 (antibody, V domains shown)
VH: QVQLVESGGGVVQPGRSLRLSCAASGFTFDTYAMHWVRQAPGKGLEWVAVISYDANYKYYADSVKGRFTISRDNSKNTLYLQMNSLRAEDTAVYYCARDSRLRSLLYFEWLSQGYFDYWGQGTLVTVSS
VL: B1 VL with Y57S, E59Q
The molecule B3 showed a poly reactivity octet max binding response (nm) in experiment [2] of 0.798 nm.

B4: FX-4-2-m3 (antibody, V domains shown)
VH: B3 VH with T28D, D30S
VL: B1 VL with Y57S, E59Q
As for B4, the poly reactivity octet max binding response (nm) in experiment [2] is 0.758 nm.

B5: FX-5-2-m3 (antibody, V domains shown)
VH: B3 VH with D30S, A49C, I70C
VL: B1 VL with Y57S, E59Q
As to B5, in experiment [2], the poly reactivity octet max binding response (nm) stood at 0.992 nm.

B6: FX-12-2-m3 (antibody, V domains shown)
VH: B2 VH with S16A, H35N, P41T, I70M, N74T, K76I, R101Q
VL: B1 VL with Y57S, E59Q
Molecule B6 showed a poly reactivity octet max binding response (nm) in experiment [2] of 0.391 nm.

B7: FX-3-3-m3 (antibody, V domains shown)
VH: B3 VH with D30S, R98K, R101Q
VL: B1 VL with W54A, G55A, Y57S, E59Q
Turning to B7, the poly reactivity octet max binding response (nm) in experiment [2] is 0.485 nm.

B8: FX-3-2-m3 (antibody, V domains shown)
VH: B3 VH with D30S, R98K, R101Q
VL: B1 VL with Y57S, E59Q
In the case of B8, the poly reactivity octet max binding response (nm) in experiment [2] came out at 0.521 nm.

B9: FX-5-6-m3 (antibody, V domains shown)
VH: B3 VH with D30S, A49C, I70C
VL: EIVMTQSPATLSVSPGERATLSCRSSQSITFDYKNYLAWYQQKPGQAPRLLIYWGSTRATGIPARFSGSGSGTEFTLTISSLQSEDFAVYYCQQHYRTPPSFGQGTKVEIK
On to B9, for which the poly reactivity octet max binding response (nm) in experiment [2] was determined as 1.13 nm.

B10: FX-7-6-m3 (antibody, V domains shown)
VH: EVQLLESGGGLVQPGGSLRLSCAASGFTFSSYAMHWVRQAPGKGLEWVSVISYDANYKYYADSVKGRFTISRDNSKNTLYLQMNSLRAEDTAVYYCAKDSQLRSLLYFEWLSQGYFDYWGQGTTLTVSS
VL: B9 VL
In the case of B10, the poly reactivity octet max binding response (nm) in experiment [2] is 0.703 nm.

B11: FX-10-6-m3 (antibody, V domains shown)
VH: B2 VH
VL: B9 VL
Take B11: in experiment [2], the poly reactivity octet max binding response (nm) came to 0.862 nm.

B12: FX-3-6-m3 (antibody, V domains shown)
VH: B3 VH with D30S, R98K, R101Q
VL: B9 VL
For B12, the poly reactivity octet max binding response (nm) in experiment [2] came out at 0.774 nm.
